Data published in article PMC4834570.

Target: A1-tagged Gal-1 (galectin-1) (UniProt P09382)
Assay: FRET or BRET; in vitro sensitized acceptor emission FRET titration; 100 nM ATTO-488-labelled Gal-1 titrated with 100 nM to 1000 nM DY-547-labelled C-Raf-RBD; 25 mM HEPES, 100 mM NaCl, 3 mM MgCl2, 3 mM DTT, pH 7.2

**Q.** “A1-tagged C-Raf-RBD (from UniProt P04049 56-131) (domain or fragment)” was tested. Which Kd did it give?
**A.** The Kd was 106 nM.
